In assay [1] the target is CH505 T/F UFO Env trimer (HIV-1 (subject CH505)). The experiment in a line: native gel or EMSA; blue native gel (NativePAGE 3-12% Bis-Tris) of the fractions collected from SEC.
Assay [2] has the same target. In words: SEC; lectin-purified Env proteins separated on a Superdex 200 Increase 10/300 GL column. For orientation: In gel filtration, larger molecules generally elute earlier.

As to CH505 T/F UFO Env trimer, the stoichiometry N in assay [1] and in assay [2] was 3 in each case.

Source of the values: article PMC10454455.
